T1: LY6G6D
T1 chain: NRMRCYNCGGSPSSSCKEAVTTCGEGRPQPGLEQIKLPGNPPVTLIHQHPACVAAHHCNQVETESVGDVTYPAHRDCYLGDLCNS


Tests used:
Experiment in all cases: BLI
cp1342 = biological target: cp1342
cp1352 = biological target: cp1352
cp1339 = biological target: cp1339
cp1340 = biological target: cp1340
cp1286 = biological target: cp1286
cp1292 = biological target: cp1292
cp1284 = biological target: cp1284
cp1285 = biological target: cp1285
cp1353 = biological target: cp1353
cp1338 = biological target: cp1338
LY6G6D = biological target: T1, LY6G6D

Kd (cp1342)	Kd (cp1352)	Kd (cp1339)	Kd (cp1340)	Kd (cp1286)	Kd (cp1292)	Kd (cp1284)	Kd (cp1285)	Kd (cp1353)	Kd (cp1338)	Kd (LY6G6D)	Binder
1.73 nM	1.54 nM	0.824 nM	2.52 nM	1.12 nM	6.97 nM	40.7 nM	1.78 nM	21.8 nM	0.695 nM		cp203 (Fc fusion, biotinylated for BLI capture (site not stated)) NRMRCYNCGGSPSSSCKEAVTTCGEGRPQPGLEQIKLPGNPPVTLIHQHPACVAAHHCNQVETESVGDVTYPAHRDCYLGDLCNS
										0.255 nM	CB21-499-177 (antibody, V domains shown) VH: EVQLVESGGGVVQPGRSLRLSCAASGFTFSSYGMHWVRQAPGKGLEWVAVIWYDASNKEYAPSVKGRFTISRDNSKNTLYLQMNSLRAEDTAIYYCARPGEGDYWGQGTLVTVSS VL: DIQMTQSPSSLSASVGDRVTITCRASQGVRNDFGWFQQKPGKAPKRLIYGASSLQSGVPSRFSGSGSGTEFTLTISSLQPEDFATYYCLQQNSYPWTFGQGTKLEIK
										0.337 nM	CB21-499 (antibody, V domains shown) VH: EVQLVESGGGVVQPGRSLRLSCAASGFTFSSYGMHWVRQAPGKGLEWVAVIWYDGSNKDYADSVKGRFTISRDNSKNTLYLQMNSLRAEDTAIYYCARPGEGDYWGQGTLVTVSS VL: DIQMTQSPSSLSASVGDRVTITCRASQGVRNDFGWFQQKPGKAPKRLIYGASSLQSGVPSRFSGSGSGTEFTLTISSLQPEDFATYYCLQQNSYPWTFGQGTKLEIK

Source: patent publication US20250361298A1 (published 2025)
